In patent publication JP2000515494A (dated 2000):

Target: T1, 4A6/IL-5複合体 (hIL-5 captured on immobilised mAb 4A6) (human, UniProt P05113 20-134)
T1 construct: also called 4A6/IL-5 complex
Assay: BIAcore: mAb 4A6 immobilised, hIL-5 captured, IL-5Rα injected at 15, 30, 60, 120 nM

T1 sequence (P05113 20-134): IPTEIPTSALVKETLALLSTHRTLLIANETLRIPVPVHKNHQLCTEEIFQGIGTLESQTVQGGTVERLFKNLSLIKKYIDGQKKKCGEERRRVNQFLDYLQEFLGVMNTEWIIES

koff: 0.0023 s⁻¹ | kon: 630000 M⁻¹ s⁻¹
B1: 可溶性IL-5レセプターα鎖 (soluble IL-5 receptor alpha chain) (receptor, UniProt Q01344 21-335, looked up)
chain: DLLPDEKISLLPPVNFTIKVTGLAQVLLQWKPNPDQEQRNVNLEYQVKINAPKEDDYETRITESKCVTILHKGFSASVRTILQNDHSLLASSWASAELHAPPGSPGTSIVNLTCTTNTTEDNYSRLRSYQVSLHCTWLVGTDAPEDTQYFLYYRYGSWTEECQEYSKDTLGRNIACWFPRTFILSKGRDWLAVLVNGSSKHSAIRPFDQLFALHAIDQINPPLNVTAEIEGTRLSIQWEKPVSAFPIHCFDYEVKIHNTRNGYLQIEKLMTNAFISIIDDLSKYDVQVRAAVSSMCREAGLWSEWSQPIYVGNDE
notes: also called IL-5Pα [sic]
